From US20230203142A1, “TREATMENT OF METABOLIC DISORDERS THROUGH THE TARGETING OF A NOVEL CIRCULATING HORMONE COMPLEX” (The President and Fellows of Harvard College, priority 2020, published 2023)

Legend:
INS1 cells = assay: ER stress and cell death markers (Western blot, QPCR); type: cell-based, rat; details: combined stimulation with complex and ER stress-inducer Tg
From the text: The purinergic P2Y receptors activate two downstream signaling pathways; phospholipase C (PLC), which promotes the generation of IP3, as well as inhibition of cAMP generation through the activation of G proteins (Sabala et al., 2001; Seo et al., 2016). These pathways directly influence calcium flux, which regulates both insulin secretion and survival. To elucidate how the NDPK-ADK/FABP4 complex influences beta cell function to promote diabetes, the intracellular effects mediated by this complex were examined using western blotting and quantitative PCR. Western blotting and quantitative PCR (QPCR) were performed as previously described (Prentice et al., 2018). […] Protein content was evaluated by BCA (Invitrogen, USA). […]
ER calcium homeostasis is essential for a variety of processes and reduced ER calcium can induce ER stress through the accumulation or inappropriate secretion of misprocessed or misfolded proteins (Engin et al., 2014; Engin et al., 2013). […] Cells were treated for 2 hours with increasing doses of Thapsigargin or 18 hours with increasing doses of cytokines (1=TNFα (Peprotech #315-05-20 ug) […], IFNγ (Peprotech #315-01A-20 ug) 100 ng/ml, IL-1β (R&D Systems #401-ML-005) 5 ng/ml), washed with PBS, and cleaved caspase 3/7 activity was determined using the Promega Caspase-Glo 3/7 Assay System, according to manufacturer's instructions.

recombinant NDPK = target: T1, recombinant NDPK (Homo sapiens, UniProt P15531); assay: Recombinant kinase activity assay, NDPK (ADP-Glo/Kinase-Glo); type: biochemical
T1 construct: purchased Acro Biosystems NM1-H5147
T1 sequence (P15531 whole entry): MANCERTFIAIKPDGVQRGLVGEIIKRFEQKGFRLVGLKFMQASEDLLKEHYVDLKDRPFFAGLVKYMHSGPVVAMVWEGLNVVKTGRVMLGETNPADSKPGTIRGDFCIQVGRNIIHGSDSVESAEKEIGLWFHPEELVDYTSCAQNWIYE
Description: An on-bead kinase assay was developed to measure the activity of endogenous NDPK and ADK pulled down from serum using a-Ab or c-Ab conjugated beads. Both NDPK and ADK are bi-directional kinases that will produce ATP or ADP depending on the substrates provided (FIGS. 4B-C). Kinase activity assays were performed in 384-well plates in reaction buffer (PBS with 0.1% BSA, 0.01% F-127, 5 mM MgCl2). Experiments with recombinant proteins were performed at final concentrations of 40 μg/ml for ADK and FABP4, and 20 ug/ml for NDPK, and a reaction volume of 10 μl. Antibodies were used at a final concentration of 80 ug/ml. Substrates were added in equimolar ratios depending on the kinase being assayed and the direction of the reaction in serial dose responses, with the highest concentration of 5 μM. Proteins and substrates were incubated for 1 hr at room temperature, and ADP and ATP production were monitored using ADP-Glo and Kinase-Glo kits, respectively, according the manufacturer instructions (V6930 and V6711 Promega, USA). Luminescence was quantified using a SpectraMax Paradigm plate reader 30 min after the addition of substrate. Consistent with the MS results, ADK activity, as measured by generation of ATP, was specifically observed in samples pulled down with a-Ab but not c-Ab (FIG. 5A). […] To test this possibility, the ATP and ADP generating activity of recombinant ADK was assessed in the presence of the proposed complex components.

FABP4 = FABP4 (Homo sapiens, UniProt P15090); assay: Antibody binding affinity for FABP4; details: compared to traditional therapeutic antibodies
FABP4, sequence (P15090 whole entry): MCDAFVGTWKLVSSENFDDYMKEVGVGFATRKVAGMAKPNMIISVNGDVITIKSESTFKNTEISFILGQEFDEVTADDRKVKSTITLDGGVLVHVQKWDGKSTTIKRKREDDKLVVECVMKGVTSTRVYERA

primary human islets = assay: Glucose-stimulated insulin secretion (GSIS), human islets; type: cell-based
Description: Primary islet isolation from mice was performed as previously described (Batchuluun et al., 2018; Prentice et al., 2014) and GSIS was assessed following acute treatment with NDPK-ADK in the presence or absence of FABP4. Insulin secretion assays were performed as previously described (Prentice et al., 2014). For primary islets, 20 islets were hand-picked into 1.5 ml tubes, washed twice with Krebs Ringer Buffer (KRB) without glucose, and pre-incubated in 500 μl low glucose (LG; 2.8 mM) KRB for 1 hour at 37° C. KRB was then removed and 250 μl of fresh LG KRB added. Islets were incubated for 20 minutes at 37° C. Supernatant was collected and 250 μl high glucose (HG; 16.7 mM) KRB added. Islets were incubated for 20 minutes at 37° C. In conditions where KCl was used, HG KRB was collected, and 250 μl KC1 (16.7 mM glucose, 30 mM KCl) KRB added. Islets were incubated for 20 minutes at 37° C., and supernatant collected. Following the stimulation protocol, cells were lysed in 100 μl acid ethanol (70% ethanol, 1% HCl in water) and stored at 4° C. overnight. Samples were evaporated using a SpeedVac until dried, and resuspended in 60 μl ultrapure water. DNA was quantified by Nanodrop (ThermoFisher, USA). Insulin from supernatant was quantified using insulin HTRF (Insulin Ultrasensitive Assay kit 62IN2PEH; Cisbio, USA). […]

B1: a-Ab: monoclonal antibody previously reported as CA33; heavy chain SEQ ID NO 446, light chain SEQ ID NO 447; binds FABP4 and NDPK (antibody, listed as Homo sapiens)
heavy: QSVEESGGRLVTPGTPLTLTCTVSGFSLSTYYMSWVRQAPGKGLEWIGIIYPSGSTYCASWAKGRFTISKASTTVDLKITSPTTEDTATYFCARPDNDGTSGYLSGFGLWGQGLVTVSSAKTTPPSVYPLAPGSAAQTNSMVTLGCLVKGYFPEPVTVTWNSGSLSSGVHTFPAVLQSDLYTLSSSVTVPSSTWPSETVTCNVAHPASSTKVDKKIVPRDC
light: DVVMTQTPASVSEPVGGTVTIKCGASEDISRYLVWYQQKPGQPPKRLIYKASTLASGVPSRFKGSGSGTDFTLTISDLECDDAATYYCQCTYGTYAGSFFYSFGGGTEVVVERTDAAPTVSIFPPSSEQLTSGGASVVCFLNNFYPKDINVKWKIDGSERQNGVLNSWTDQDSKDCTYSMSSTLTLTKDEYERHNSYTCEATHKTSTSPIVKSFNRNEC
- ER stress markers Chop and Bip (Grp78) (INS1 cells): rescued
- ADP producing capacity of NDPK (recombinant NDPK; in the presence of the complex components): rescued
- activity of NDPK to generate ADP (recombinant NDPK; recombinant NDPK plus the added component): no effect
- binding affinity for recombinant FABP4 (FABP4): relatively weak binding affinity
- GSIS in response to the NDPK-ADK/FABP4 complex (primary human islets): rescued
